Test results published in US20220233697A1 (ACCELERON PHARMA, published 2022).

Target: T1, activin A (UniProt P08476 311-426)
T1 construct: also called ActA
T1 sequence (looked up): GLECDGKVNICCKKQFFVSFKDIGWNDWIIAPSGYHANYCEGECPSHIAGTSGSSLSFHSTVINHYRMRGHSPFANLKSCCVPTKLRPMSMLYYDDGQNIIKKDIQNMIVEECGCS
Assay: Biacore, ligand coupled, receptor flowed (table reproduced from WO2006/012627)

binding result: binds
B1: Soluble ActRIIB-Fc K55A (Fc fusion, UniProt Q13705 19-119, looked up)
chain: SGRGEAETRECIYYNANWELERTNQSGLERCEGEQDARLHCYASWANSSGTIELVKKGCWLDDFNCYDRQECVATEENPQVYFCCCEGNFCNERFTHLPEA
notes: not shown: Fc domain, not specified
